Consider 18 sequences from the DeepSol protein solubility set.

This data set can be described thus: soluble on expression in E. coli; label from the status in PepcDB or PDB records.
With “RQPEVRGGDTLNVFLAYVPEDAKAMMTTPFEAYLVNDSNYYLYYTYLSAEGKAWNNRSHGLVEPNTKLLLEEFTKDVLNEMERVAVQLIAFKDGKPAAIKPAVSVELRIDTVKFYKLHTFSASDFFEEPALIYDIVKDDVPAKQVYV”, the “soluble on expression in E. coli” value is “soluble”.

“SDTRQLPNRPVEVTIMGLGCAQMGNLYRVTPYEESKGAFDKAWESGMRYFDTAPFYGYTRSERRLGTMVTEHDRGDYTLSTKVGRVMVPDETVGPEEDAYIAPLPFRPVYDYSYDGILRSFEASQQRLGILKPDILYVHDIGSHTHGEKHQHYWEQLTTGGGFRALGKLRDEGSTGAVGLGVNEWEIINDAMDVFDIDVAMLAGRYTLLEQQSLAFMNRCAESGVAIVVAGAFNSGILAGNRKFNYADAPADILKRVDALHNVCEELGVSLQAAALQFPLAHPASVTVVSGARNAQQLASNIEWFEQSIPDEFWSELHK”: the “soluble on expression in E. coli” value was “not soluble”.

“MQVKSIKMRWESGGVNYCYLLSDSKNKKSWLIDPAEPPEVLPELTEDEKISVEAIVNTHHHYDHADGNADILKYLKEKNPTSKVEVIGGSKDCPKVTIIPENLKKLHLGDLEITCIRTPCHTRDSICYYVKDPTTDERCIFTGDTLFTAGCGRFFEGTGEEMDIALNNSILETVGRQNWSKTRVYPGHEYTSDNVKFVRKIYPQVGENKALDELEQFCSKHEVTAGRFTLKDEVEFNPFMRLEDPKVQKAAGDTNNSWDRAQIMDKLRAMKNRM”: the “soluble on expression in E. coli” value was “soluble”.

Consider “MNSELKARYKVLGSEKEHTKSETLTETLIEVIVNGDVEPGSKISEPELARKYQVSRGPLREALMRLEGLGLIERIPHVGARVTTFSPAKLIELYSVREALEGMAARLAARHITQEELLSLEMLLSTHSKHIDQVEGASYFHQHGDFDFHYRIIQASRNSKLISLLCDELYHLLRMYRYQSPRAQSRPNEALTEHKFILEAIRNRDEELAEMLMRRHISGSRKLIQSQIIHTESLDKD”, for which the “soluble on expression in E. coli” value was “not soluble”.

On to “PRRGPVAKRDVLPDPIYNSKLVTRLINKIMIDGKKSKAQKILYTAFDIIRERTGKDPMEVFEQALKNVMPVLEVRARRVGGANYQVPVEVRPDRRVSLGLRWLVQYARLRNEKTMEERLANEIMDAANNTGAAVKKREDTHKMAEANKAFAHYRW”, for which the “soluble on expression in E. coli” value was “soluble”.

As to “DIVMTQTPKFLLVSAGDKVTITCKASQSVSNDLTWYQQKPGQSPKLLIYYASNRYTGVPDRFTGSGYGTDFTFTISTVQAEDLAVYFCQQDYGSPPTFGGGTKVEIKRTVAAPSVFIFPPSDEQLKSGTASVVCLLNNFYPREAKVQWKVDNALQSGNSQESVTEQDSKDSTYSLSSTLTLSKADYEKHKVYACEVTHQGLSSPVTKSFNRGEC”, the “soluble on expression in E. coli” value was “soluble”.

“GMTDQSVRIIEAALRLYMKKPPHEVSIEEIAREAKVSKSLIFYHFESKQKLLEEAVMHAFRKMMEEFNPRSVEEVVDYGIGFIAERREFIEFMMYALSQVRIEELERMFGEALEKVASLFEGCRHPRETAIALMAMLDGLSIYSLYFDLGKLEKYREIAMEFVESRRVRA”: the “soluble on expression in E. coli” value is “soluble”.

Turning to “MASRETILDVLAKLEECKETLNNSLNYDEAANSNGSSTFQDQSEIKIEHIAPNLVFENGTVPQEQSNSFQWYEEEVSNDACVSSNEYSGVKLCPFNIGFKSYNTPPDQMQQLDKSISDNMACRMNVDFSGIDRLIQHGSEDMRTVGYGMRGMMKLLQIQHEKLMGKKPDDVTTGLKASLVPARFLKEKTVIVRNLTDDADINVNKVFGQLTAQSSSLKNIVINAANVWIKNVVPDEQRKLYSTSIKPQQPQITFPAQLLNGPAGLLVRCLSVTGGDNSSNAVNISLLFKQHVSNLFNHARSKSGITNSRKRKQQSEDYSYN”, the “soluble on expression in E. coli” value is “not soluble”.

Regarding “MPRLENTIDIKVPVNIAYNQWTQFETFPNFMSSVLQVKQLDDSHVWWQVEIGGHAIEWETEIIEQVPDDHIAWRSVSGPRHLGLVSFKHVDIHATRVHVEIEYEADMKAEVSATMTGLLEQKISEALTCYRQLLESRKRPAGGWRGRIAVGTDNAVRHLEHHHHHH”, the “soluble on expression in E. coli” value was “soluble”.

With “MAKNKVLGRGLADIFPEINEVYEQGLYERANRVVELGIDEVMPNPYQPRKVFSEDSLEELAQSIKEHGLLQPVLVVSENGRYHLIAGERRLRASKLAKMPTIKAIVVDIEQEKMREVALIENIQREDLNPLELARSYKELLESYQMTQEELSKIVKKSRAHVANIMRLLTLSSKVQNALLEEKITSGHAKVLVGLDGEKQELILNSIIGQKLSVRQTEDLARDFKINANFDNKKHGFKQTQTLIAGDELERLNQSLWDHYKLKAALKGNKIVLRCYENSLLEAFMKKMMS”, the “soluble on expression in E. coli” value is reported as “not soluble”.

For the sequence “MTDDKKMFDINEFLKRHLFVKNWVNYRQQSYTKYELMQLIESVEAALSVDDTLAKISPPVTIVGDIHGQYPDLVRVLCNQNSKEDAKKKAAYGFCNSRFVFLGDYVDRGHHSIECISLVFALKVVYPTNYILLRGNHETKSINYTYGFREELVNRLGPIDGFEIWERFNVAFSWMPLACLVGHKILCMHGGISPKLHSLKEINEIDRPVAEILPDSLAQDLLWADPADGQGAMTVRSTPEYVPNGVRGLSFIFNEAAVRDTCKRLNINLIVRAHQMIPEGFKFFADQKLLTIFSAPRYMNETDNHGATLRVETDGKLNIGRFRHKKLLHANSADEITRGDDIPNLERKKSGSMPVKHLKTSSSSSPSHSNGKSKGGEGLSLGKI”, the “soluble on expression in E. coli” value is on record as “not soluble”.

Consider “MSLKNIVFDIGNVLLKFTPVEFLKSKYKDDKLVEALYENVFKSNEWVELDRGTITEEEATCRFCKRDPHNAKYIREVMETWNEMHVPVEGTSELMKELREKGYKIYLLSNYHLKAFKLISDKYDFIRDVDGGIISSKVKLLKPELEIYKALTNSCGIKPEESIFIDDREENVEAAIKLGFNGIVFKDAYELKGKFDELGIAIEGHHHHHH”, for which the “soluble on expression in E. coli” value is “soluble”.

Turning to “MSLANLKVNLYGMEFLNPIMTAAGPGAKDGALCQEAAKGGAGAICTKTISVLPADVPRPCMAKTNSGFLNTELWSELPKEQWIEEEYKKVKETGLPVIVSMGYSAEQIAEVAPLVKPYADAVELSTHYVGTDVAPIVNALKAAKAVLDVPVFMKMSPHTDIQTIAKAVEEAGADGLVMINSFGPCMAIDVNTGYPIMGSKAGYGWLSGAPIRPLAIRCIYEASQVVNIPIIGVGGITCGKDVAEMMMAGASAVQVCTEAILKGPSIYGKIAKELNEFLDENGYADVNEIKGLTHKKMAARGFRTHSVAPVVDEGHHHHHH”, the “soluble on expression in E. coli” value is listed as “soluble”.

For “KQKKMQAMIVTSRPDRVIRMIHHKLHRGVTIINDAEGTYNHEHKAILVTIITRAEFNDFKYIMKKTDKNAFVSVADNVNIIGRFVEED”, the “soluble on expression in E. coli” value was “not soluble”.

Take “MRDIQMVLERWGAWAANNHEDVTWSSIAAGFKGLITSKVKSRPQCCDDDAMIICGCMARLKKNNSDLHDLLVDYYVVGMTFMSLAGKHCCSDGYIGKRLQKAEGIIEGMLMALDIRLEMDIVVNNSNLEHHHHHH”: the “soluble on expression in E. coli” value is on record as “not soluble”.

With “ASNVHRVQQVIHAAIATNRKLAVAGRSMVKVVSIAERLGYLEAPDDLFIDIEEVSKYDDERVAIITTGSQGEPMSALSRMAKGAHRQITITENDTVIIAATPIPGNERSVSTIVDLLHRIGADVIFGHGKVHASGHGSAEELKLMLNLMRPKFFVPIHGEFRMQHAHKELAKSVGIREEAIFLVDKGEVVEFRNGQGRKAGKVPSGNVLIDGLGVGDVGNIVLRDRRLLSKDGILVVVVTLNKQSGTILSGPNIISRGFVYVRESEKLIEEANELVTETLKKCVTENVNEWSSLKSNVREVLSRFLFEKTKRRPMILPIIME”, the “soluble on expression in E. coli” value is “soluble”.

For “MKLDQIDLNIIEELKKDSRLSMRELGRKIKLSPPSVTERVRQLESFGIIKQYTLEVDQKKLGLPVSCIVEATVKNADYERFKSYIQTLPNIEFCYRIAGAACYMLKINAESLEAVEDFINKTSPYAQTVTHVIFSEIDTKNGRG”, the “soluble on expression in E. coli” value is “soluble”.

For the sequence “MCTVVIDRRPGDPWPLLVAANRDELADRPWLPPARHWPSRPEVIAGLDELAGGTWMGLNDWGVVACVLNREGTLGPLAGRRSRGELVLDALDMADARDAAEALADIDPRAYRPFNLIVADNRDAFWIRHADAEGRAAVEVHPLAEGLTLMTAHDPDDPLDARARAYLPRFRAAPRPDPQLRDGWAPWTHLLGSRDHAVDDGPTAAMCFSLAGGFGTSSSSLIALPAMERIGVDPLYLFAPAPPDQTDYRPVLEHHHHHH”, the “soluble on expression in E. coli” value is “soluble”.
